Where no end group is shown, it is not given here.
Assays:
[1] = target: T1, human LAG-3 (cell surface) (human, UniProt P18627 23-525); experiment: flow cytometry, CHO cells expressing human LAG-3
T1 construct: whole, on cells; also called CHO-human LAG-3
T1 sequence (looked up): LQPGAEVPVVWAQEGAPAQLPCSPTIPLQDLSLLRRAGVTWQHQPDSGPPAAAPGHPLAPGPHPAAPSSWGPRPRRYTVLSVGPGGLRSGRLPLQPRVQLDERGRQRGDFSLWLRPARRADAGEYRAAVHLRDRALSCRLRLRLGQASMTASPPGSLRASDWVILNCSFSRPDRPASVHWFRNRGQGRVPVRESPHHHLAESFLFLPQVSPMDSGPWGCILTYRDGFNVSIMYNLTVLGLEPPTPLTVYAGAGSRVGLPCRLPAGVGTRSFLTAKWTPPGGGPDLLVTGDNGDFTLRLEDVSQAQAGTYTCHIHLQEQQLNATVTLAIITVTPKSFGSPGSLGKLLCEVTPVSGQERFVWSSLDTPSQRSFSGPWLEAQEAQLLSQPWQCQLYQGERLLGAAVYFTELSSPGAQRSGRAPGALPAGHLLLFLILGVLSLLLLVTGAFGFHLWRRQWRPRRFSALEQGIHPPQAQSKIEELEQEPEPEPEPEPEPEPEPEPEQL
Protocol: To test the ability of the antibodies to bind to cell surface LAG-3 protein, the antibodies were incubated with a CHO cell line that had been transfected to express human LAG-3 on the cell surface. The 25F7, 26H10, 25E3, 8B7, 11F2 and 17E5 monoclonal antibodies were serially diluted with cold lx PFAE buffer (1×PBS+2% FBS, 0.02% sodium azide, 2 mM Na EDTA). For the binding reaction, 50 μl of diluted antibody solution was added to a 50 μl cell suspension containing 2×10⁵ cells and the mixture was incubated on ice for 30 minutes. The cells were then washed two times with 1×PFAE buffer. A 1:100 dilution of FITC-labeled goat anti-human kappa light chain antibody (Bethyl Laboratories, Inc., Cat. # A80-115F) was added and the mixture was incubated for 30 minutes at 4° C., followed by washing twice with cold 1×PFAE buffer. After the final wash, 150 μl of cold 1×PFAE containing 10 μg/mL propidium iodide (Roche Applied Science, Cat #1 348 639) was added to each solution and analysis of antibody binding was carried out by flow cytometry using a FACScalibur flow cytometer (BD Bioscience).

[2] = target: T2, mouse LAG-3 (cell surface, 3A9 mouse T cell hybridoma) (mouse, UniProt Q61790 24-521); experiment: flow cytometry, 3A9 cells transfected with mouse LAG-3
T2 construct: whole, on cells; also called mLAG-3
T2 sequence (looked up): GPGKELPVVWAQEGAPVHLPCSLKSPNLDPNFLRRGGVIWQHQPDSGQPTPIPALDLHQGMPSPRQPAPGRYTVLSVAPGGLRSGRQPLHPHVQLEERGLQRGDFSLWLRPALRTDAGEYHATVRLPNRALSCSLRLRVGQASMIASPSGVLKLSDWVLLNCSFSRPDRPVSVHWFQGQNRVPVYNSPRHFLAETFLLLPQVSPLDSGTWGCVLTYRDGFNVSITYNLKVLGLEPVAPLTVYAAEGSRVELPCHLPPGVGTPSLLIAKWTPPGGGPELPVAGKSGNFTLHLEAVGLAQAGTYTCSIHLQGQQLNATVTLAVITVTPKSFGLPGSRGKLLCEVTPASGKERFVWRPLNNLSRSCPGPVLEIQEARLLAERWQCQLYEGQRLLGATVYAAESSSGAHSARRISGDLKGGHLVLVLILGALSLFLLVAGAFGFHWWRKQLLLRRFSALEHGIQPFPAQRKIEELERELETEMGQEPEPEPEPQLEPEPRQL
Protocol: To determine whether the antibodies cross-reacted with mouse LAG-3, similar flow cytometry studies to those described above were performed using as the target cell a mouse T cell hybridoma cell line (3A9) that had been transfected to express mouse LAG-3 on its cell surface, followed by FACS analysis to detect antibody binding.

[3] = target: T3, LAG-3 extra loop scan peptide PAAPSSWGPRPR (human, also: conjugated to biotin); experiment: peptide scan ELISA
T3 construct: 12-mer overlapping scan peptide of the extra loop
T3 peptide: PAAPSSWGPRPR
Protocol: (§1) In the LAG-3 protein, the immunoglobulin-like first domain of the extracellular region contains an exposed “extra loop” having the amino acid sequence: […] (SEQ ID NO: 79). To examine the binding of 25E3, 25F7, 8B7 and 26H10 to this region of LAG-3, and map the epitope bound by each antibody, a peptide scan experiment was performed across this region. A series of 10 overlapping peptides that scanned across the full length of the extra loop sequence were prepared and conjugated to biotin. For ELISA analysis, microtiter plates pre-coated with streptavidin (Sigma-Aldrich, Cat # M5432) were used to capture the biotinylated loop peptide-conjugates applied in a 100 μl volume at a concentration of 2 μg/mL and incubated 18 hours at 4° C., after which the plates were washed 3 times and blocked at room temperature for 1 hour with blocking buffer (1×PBS+10% FBS). Next, human anti-LAG-3 antibodies serially diluted 3-fold in blocking buffer from 10 μg/mL were applied and the plates were incubated at room temperature for 2 hours and then washed three times. To detect bound human antibody a HRP-conjugated goat anti-human kappa light chain antibody (Bethyl Laboratories, Cat # A80-115P) was diluted to 1 μg/mL in blocking buffer and applied to assay wells for 1 hour followed by three washes and application of TMB substrate (eBioscience, Cat #00-4201-56). Optical density readings at 650 nm wavelength were made on a Spectramax 340PC spectrophotometer ([…].).

[4] = target: T4, LAG-3 extra loop scan peptide PGPHPAAPSSWG (human, also: conjugated to biotin); experiment: peptide scan ELISA
T4 construct: 12-mer overlapping scan peptide of the extra loop
T4 peptide: PGPHPAAPSSWG
Protocol: as §1

[5] = target: T5, LAG-3 extra loop scan peptide PHPAAPSSWGPR (human, also: conjugated to biotin); experiment: peptide scan ELISA
T5 construct: 12-mer overlapping scan peptide of the extra loop
T5 peptide: PHPAAPSSWGPR
Protocol: as §1

[6] = target: T6, LAG-3 extra loop scan peptide GPPAAAPGHPLA (human, also: conjugated to biotin, site not given here); experiment: peptide scan ELISA
T6 construct: 12-mer overlapping scan peptide of the extra loop
T6 peptide: GPPAAAPGHPLA
Protocol: as §1

[7] = target: T7, LAG-3 extra loop scan peptide PGHPLAPGPHPA (human, also: conjugated to biotin); experiment: peptide scan ELISA
T7 construct: 12-mer overlapping scan peptide of the extra loop
T7 peptide: PGHPLAPGPHPA
Protocol: as §1

[8] = target: T8, LAG-3 extra loop scan peptide AAPGHPLAPGPH (human, also: conjugated to biotin, site not given here); experiment: peptide scan ELISA
T8 construct: 12-mer overlapping scan peptide of the extra loop
T8 peptide: AAPGHPLAPGPH
Protocol: as §1

[9] = target: T9, LAG-3 extra loop scan peptide PAAAPGHPLAPG (human, also: conjugated to biotin, site not given here); experiment: peptide scan ELISA
T9 construct: 12-mer overlapping scan peptide of the extra loop
T9 peptide: PAAAPGHPLAPG
Protocol: as §1

[10] = target: T10, LAG-3 extra loop scan peptide HPLAPGPHPAAP (human, also: conjugated to biotin, site not given here); experiment: peptide scan ELISA
T10 construct: 12-mer overlapping scan peptide of the extra loop
T10 peptide: HPLAPGPHPAAP
Protocol: as §1

Binder | EC50 [1] [nM] | fold lower EC50 than 25E3 [1] [fold] | binding result [2] | binding result [3] | binding result [4] | binding result [5] | binding result [6] | binding result [7] | binding result [8] | binding result [9] | binding result [10]
25F7 human monoclonal antibody (antibody, IgG1, V domains shown, also called 25F7-FITC (IgG1 version)) VH: QVQLQQWGAGLLKPSETLSLTCAVYGGSFSDYYWNWIRQPPGKGLEWIGEINHNGNTNSNPSLKSRVTLSLDTSKNQFSLKLRSVTAADTAVYYCAFGYSDYEYNWFDPWGQGTLVTVSS VL: EIVLTQSPATLSLSPGERATLSCRASQSISSYLAWYQQKPGQAPRLLIYDASNRATGIPARFSGSGSGTDFTLTISSLEPEDFAVYYCQQRSNWPLTFGQGTNLEIK | 0.45 to 2.52 | ~20 | no binding | binds | binds | binds |  |  |  |  | 
26H10 human monoclonal antibody (antibody, IgG1, V domains shown, also called 26H10-FITC) VH: QVQLVESGGGVVQPGRSLRLSCAASGFTFSSYGMHWVRQAPGKGLEWVAVIWYDGSNKYYADSVKGRFTISRDNSKNTLYLQMNSLRAEDTAVYYCAREWAVASWDYGMDVWGQGTTVTVSS VL: not shown | 1.81 to 3.64 |  | no binding | no binding (tested: 10 µg/mL) | no binding (tested: 10 µg/mL) | no binding (tested: 10 µg/mL) | no binding (tested: 10 µg/mL) | no binding (tested: 10 µg/mL) | no binding (tested: 10 µg/mL) | no binding (tested: 10 µg/mL) | no binding (tested: 10 µg/mL)
8B7 human monoclonal antibody (antibody, IgG4, V domains shown, also called 8B7-FITC) VH: QVQLQQWGAGLLKPSETLSLTCAVYGGSFSGYYWSWIRQPPGKGLEWIGEINHRGNTNCNPSLKSRVTISGDTSKKQFALKLNSVTAADTAVYYCARGYDILTGYYEDSWGPGTLVTVSS VL: EIVLTQSPATLSLSPGERATLSCRASQSVSSYLAWYQQKPGQAPRLLIYNASNRATGIPARFSGSGSGTDFTLTISSLEPEDFAVYYCQQRSNWPLTFGGGTKVEIK | 1.93 to 4.44 |  | no binding | binds | binds | binds |  |  |  |  | 
25E3 human monoclonal antibody (antibody, IgG1, V domains shown) VH: EVQLVESGGGVVRPGGSLRLSCAASGFTFDDYGMSWVRQAPGKGLEWVSGINWNGGSTYYADSVKGRFTISGDNAKNSLYLQMNSLRAEDTALYYCTTGGYWGQGTLVTVSS VL: AIQLTQSPSSLSASVGDRVTITCRASQGIRSALAWYQQKPGKAPKLLIYDASSLESGVPSRFSGSGSGTDFTLTISSLQPEDFATYYCQQFNSYPYTFGQGTKLEIK | 14.9 to 25.4 |  | no binding |  |  |  |  | binds | binds | binds | 
